Measured values: US20260209325A1 (SCHOLAR ROCK, published 2026)
Substitutions are numbered along the chain they refer to.

B1: Ab117 (antibody, human IgG4 S228P, kappa, V domains shown)
VH: QVQLVQSGAEVKKPGASVKVSCKVSGGTFSSHDIHWVRQAPGKGLEWMGGINPSDASTIYAQKFQGRVTMTEDTSTDTAYMELSSLKSEDTAVYYCARDLRGYSYGAETWHFQHWGQGTLVTVSS
VL: DIQMTQSPSSVSASVGDRVTITCRASQYISNYLAWYQQKPGKAPKLLIYETSRLESGVPSRFSGSGSGTDFTLTISSLQPEDFANYYCQQTSSTPLTFGGGTKVEIKR
B2: Ab116 (antibody, human IgG4 S228P, kappa, V domains shown)
VH: QVQLVQSGAEVKKPGASVKVSCKVSGFTFSRPAIHWVRQAPGKGLEWMGGINPNAATTIYAQKFQGRVTMTEDTSTDTAYMELSSLKSEDTAVYYCARGRLLREWELRPYDTWGQGTLVTVSS
VL: DIQMTQSPSSVSASVGDRVTITCRASQSIGKSLAWYQQKPGKAPKLLIYSASNLRSGVPSRFSGSGSGTDFTLTISSLQPEDFANYYCQQYRDVPPITFGGGTKVEIKR
B3: Ab133 (antibody, human IgG4 S228P, kappa, V domains shown)
VH: EVQLVESGGGLVQPGGSLRLSCAASGFTFSSYGMSWVRQAPGKGLELVASFTGSGGAYYPDSVKGRFTISRDNAKNSLYLQMNSLRAEDTAVYYCARDLLIRFLEWSHYYGMDVWGQGTTVTVSS
VL: DIVMTQSPLSLPVTPGEPASISCRSSQSLLHSSGHNFLHWYLQKPGQSPQLLIYEVSNRVSGVPDRFSGSGSGTDFTLKISRVEAEDVGVYYCQQQTQYPGTFGGGTKVEIKR
notes: human IgG4 in the EM experiment; also called Ab133 Human IgG4
B4: Ab130 (antibody, human IgG4 S228P, kappa, V domains shown)
VH: EVQLVESGGGLVQPGGSLRLSCAASGFTFTSYGMSWVRQAPGKGLELVASITGSGGETYYPDSVKGRFTISRDNAKNSLYLQMNSLRAEDTAVYYCARDLLVRFLEWSHYYGMDVWGQGTTVTVSS
VL: B3 VL with V56T, V60A, S61P, V63I, Q96A, Y99F, G101R, T102P
B5: Ab105 (antibody, human IgG4 S228P, kappa, V domains shown)
VH: B3 VH with F27S, T28A, F51I, T52G, S54T, G56A, A57T, I101V, S107G
VL: DIVMTQSPLSLPVTPGEPASISCRSSQSLLHSSGYNFLHWYLQKPGQSPQLLIYAASSRAPGIPDRFSGSGSGTDFTLKISRVEAEDVGVYYCMHGGQGPTFGGGTKVEIKR
B6: Ab135 (antibody, human IgG4 S228P, kappa, V domains shown)
VH: B4 VH with F27S, T28A, T30S, T52N, G53S, S54N, E57S, R103T, E106R
VL: B3 VL with Q94M, G101P
B7: Ab102 (antibody, human IgG4 S228P, kappa, V domains shown)
VH: B4 VH
VL: B3 VL with V56T, V60A, S61P, V63I, Q94M, Q96A, Y99F, G101R, T102P
B8: Ab125 (antibody, human IgG4 S228P, kappa, V domains shown)
VH: EVQLVQSGAEVKKPGESLKISCKGSGNRISDYWMNWVRQVPGKGLEWMGNIYPGYSDATYNRKFKGQVTISADKSISTAYLQWSSLKASDTAIYYCARGRDGYNYFAAFDIWGQGTMVTVSS
VL: EIVLTQSPATLSLSPGERATLSCRASQSVASSYLAWYQQKPGQAPRLLIYDTSSRAAGIPARFSGSGSGTDFTLTISSLEPEDFAVYYCHQYGSSLTTFGGGTKVEIKR
B9: Ab110 (antibody, human IgG4 S228P, kappa, V domains shown)
VH: QVQLVQSGAEVKKPGASVKVSCKVSEYTFTNYDIHWVRQAPGKGLEWMGGISAYHGNAIYAQKFQGRVTMTEDTSTDTAYMELSSLKSEDTAVYYCARDRVRRDYYNFGMDVWGQGTTVTVSS
VL: DIQMTQSPSSVSASVGDRVTITCRASEDITSYLAWYQQKPGKAPKLLIYDVSSLQSGVPSRFSGSGSGTDFTLTISSLQPEDFANYYCLQHNAYPYGFGGGTKVEIKR
B10: Ab126 (antibody, human IgG4 S228P, kappa, V domains shown)
VH: EVQLVESGGGLVQPGGSLRLSCTASSFTFSNYAMDWVRQAPGKGLEWVSYISSDASTTYYADSVKGRFTISRDNAKNTLYLQMNSLRAEDTAVYYCARDGGYNPGIFDYWGQGTLVTVSS
VL: DIQMTQSPSSLSASVGDRVTITCQASQSIGRWLNWYQQKPGKAPKLLIYDASILQTGVPSRFSGSGSGTDFTFTISSLQPEDIATYYCQQSFTTPPLTFGGGTKVEIKR
B11: Ab119 (antibody, human IgG4 S228P, kappa, V domains shown)
VH: QVQLVQSGAEVKKPGASVKVSCKVSGYTFTKDHIHWVRQAPGKGLEWMGGITPSSGDTIYAQKFQGRVTMTEDTSTDTAYMELSSLKSEDTAVYYCARDHMVRGLPNYYYGMDLWGQGTTVTVSS
VL: DIQMTQSPSSVSASVGDRVTITCRASRDIANYLAWYQQKPGKAPKLLIYAASILQNGVPSRFSGSGSGTDFTLTISSLQPEDFANYYCQQAYTTPPTFGGGTKVEIKR

Experiments:
human pro-myostatin [1] = molecular target: T1, human pro-myostatin (human, UniProt O14793 24-375, biotinylated (in the SPR assay)); assay: plate binding assay, OD 450 nm, antibody titrated 0.0003 to 100 nM, panel 'Hu-Pro-GDF-8 Plate 2' (method not described in the text)
T1 construct: Disulfide-linked homodimer; also called proGDF8 (human)

human GDF-11 = human GDF-11 (human, UniProt O95390 299-407, limits assumed); assay: plate binding assay, OD 450 nm, one antibody concentration that is not given, on Hu-GDF-11 (method not described in the text)
Sequence of human GDF-11 (O95390 299-407 limits assumed): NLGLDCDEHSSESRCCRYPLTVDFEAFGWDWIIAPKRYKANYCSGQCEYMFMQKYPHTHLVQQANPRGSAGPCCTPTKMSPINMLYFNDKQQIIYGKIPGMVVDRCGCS

murine pro-myostatin [2] = molecular target: T2, murine pro-myostatin (mouse, UniProt O08689 25-376, biotinylated (in the SPR assay)); assay: plate binding assay, OD 450 nm, antibody titrated 0.0003 to 100 nM, panel 'Mu-Pro-GDF-8 Plate 2' (method not described in the text)
T2 construct: also called proGDF8 (mouse); mouse pro-myostatin

mouse GDF-11 = mouse GDF-11 (mouse, UniProt Q9Z1W4 297-405, limits assumed); assay: plate binding assay, OD 450 nm, one antibody concentration that is not given, on Mu-GDF-11 (method not described in the text)
Sequence of mouse GDF-11 (Q9Z1W4 297-405 limits assumed): as the sequence (O95390 299-407 limits assumed) above

[3] = molecular target: T3, recombinant human latent myostatin (human, UniProt O14793 24-375, biotinylated (in the Octet pH assay only)); assay: BLI Octet Red384, biotin human latent myostatin on streptavidin tips
T3 construct: also called biotinylated human latent myostatin
Experimental: Binding was performed at pH 7.4 and dissociation at pH 5.5 in an Octet Red384@assay. Streptavidin biosensors were baselined in 1x kinetics buffer (KB) (Sartorius) for one minute, then loaded with 100 nM biotinylated human latent myostatin for five minutes, followed by another baseline step of one minute in 1x KB. Binding of test antibodies was performed for five minutes and then dissociation was performed in PBS at either pH 7.4 or pH 5.5 for five minutes. Analysis was performed using a partial fit, in which full dissociation was projected. Kd at pH 5.5 was divided by Kd at pH 7.4 to calculate pH sensitivity.

[4] = molecular target: T3, recombinant human latent myostatin; assay: cell-based or functional assay
cyno pro-myostatin [5] = molecular target: T4, cyno pro-myostatin (cynomolgus monkey, Biotinylated for capture in the SPR assay (site not stated). The native form is a disulfide-linked homodimer, partly furin-cleaved; one chain is given.); assay: SPR Biacore 8K, biotin-antigen captured
T4 construct: also called proGDF8 (cynomolgus); cynomolgus monkey pro-myostatin

murine pro-myostatin [6] = molecular target: T2, murine pro-myostatin; assay: SPR Biacore 8K, biotin-antigen captured
human pro-myostatin [7] = molecular target: T1, human pro-myostatin; assay: SPR Biacore 8K, biotin-antigen captured
human pro-myostatin [8] = molecular target: T1, human pro-myostatin; assay: Ab KD, summary Table 11; method and antigen not stated there
[9] = molecular target: T3, recombinant human latent myostatin; assay: cell-based or functional assay; remark: listed apart in the source
[10] = molecular target: T3, recombinant human latent myostatin; assay: cell-based or functional assay; remark: listed apart in the source
human pro-myostatin [11] = molecular target: T1, human pro-myostatin; assay: cell-based or functional assay
cyno pro-myostatin [12] = molecular target: T4, cyno pro-myostatin; assay: plate binding assay, absorbance at 450 nm, antibody titrated 100 to about 0.002 nM, panel 'Cyno Pure Pro-GDF-8' (method not described in the text)
murine pro-myostatin [13] = molecular target: T2, murine pro-myostatin; assay: plate binding assay, OD 450 nm, antibody titrated 0.0003 to 100 nM, panel 'Mu-Pro-GDF-8 Plate 3' (method not described in the text)
human pro-myostatin [14] = molecular target: T1, human pro-myostatin; assay: plate binding assay, OD 450 nm, antibody titrated 0.0003 to 100 nM, panel 'Hu-Pro-GDF-8 Plate 1' (method not described in the text)
human pro-myostatin [15] = molecular target: T1, human pro-myostatin; assay: plate binding assay, OD 450 nm, antibody titrated 0.0003 to 100 nM, panel 'Hu-Pro-GDF-8 Plate 3' (method not described in the text)

Row | Binder | binding result (human GDF-11) | binding result (mouse GDF-11) | fold difference in off-rate (Kd at pH 5.5 / Kd at pH 7.4) [3] | mTLL2 IC50 [4] | Kd (murine pro-myostatin [6]) | koff (murine pro-myostatin [6]) | kon (murine pro-myostatin [6]) | Kd (human pro-myostatin [8]) | IC50 (nM) Latent + mTLL2 [10] | other results
1 | B1 | no binding | no binding | – | – | – | – | – | – | – | binding result (human pro-myostatin [1]): binds; binding result (murine pro-myostatin [2]): binds
2 | B2 | no binding | no binding | – | – | – | – | – | – | – | EC50 (read off the curve) (human pro-myostatin [1]): ~1 nM; EC50 (read off the curve) (murine pro-myostatin [2]): ~1 nM
3 | B3 | – | – | 17.5 fold | 0.161 nM | 0.054 nM | 0.000162 s⁻¹ | 3.01e+06 M⁻¹ s⁻¹ | 0.041 nM | 0.161 nM | Kd (cyno pro-myostatin [5]): 0.0383 nM; koff (cyno pro-myostatin [5]): 0.000109 s⁻¹; kon (cyno pro-myostatin [5]): 2.86e+06 M⁻¹ s⁻¹; Kd (human pro-myostatin [7]): 0.041 nM; koff (human pro-myostatin [7]): 0.000116 s⁻¹; kon (human pro-myostatin [7]): 2.84e+06 M⁻¹ s⁻¹; IC50 of inhibition of myostatin activation by mTLL-2 (functional ELISA, FIG. 1B) [9]: 0.16 nM
4 | B4 | – | – | 10.6 fold | 0.33 nM | – | – | – | 0.35 nM | – | IC50 of inhibition of myostatin activation by mTLL-2 (functional ELISA, FIG. 1A) [9]: 0.31 nM; IC50 of inhibition of myostatin activation by mTLL-2 (functional ELISA, FIG. 1B) [9]: 0.3 nM
5 | B5 | – | – | 0.8 fold | 0.25 nM | 0.046 nM | 0.000276 s⁻¹ | 5.99e+06 M⁻¹ s⁻¹ | 0.229 nM | 0.25 nM | Kd (cyno pro-myostatin [5]): 0.044 nM; koff (cyno pro-myostatin [5]): 0.000233 s⁻¹; kon (cyno pro-myostatin [5]): 5.26e+06 M⁻¹ s⁻¹; Kd (human pro-myostatin [7]): 0.051 nM; koff (human pro-myostatin [7]): 0.000247 s⁻¹; kon (human pro-myostatin [7]): 4.89e+06 M⁻¹ s⁻¹; IC50 (nM) Pro + Furin (human pro-myostatin [11]): 0.356 nM
6 | B6 | – | – | – | – | – | – | – | – | 0.154 nM | EC50 (read off the curve) (cyno pro-myostatin [12]): ~0.3 nM
7 | B7 | – | – | 9.3 fold | 0.346 nM | 0.082 nM | 0.0005 s⁻¹ | 6.11e+06 M⁻¹ s⁻¹ | 0.329 nM | 0.162 nM | Kd (cyno pro-myostatin [5]): 0.049 nM; koff (cyno pro-myostatin [5]): 0.000335 s⁻¹; kon (cyno pro-myostatin [5]): 6.8e+06 M⁻¹ s⁻¹; Kd (human pro-myostatin [7]): 0.058 nM; koff (human pro-myostatin [7]): 0.000376 s⁻¹; kon (human pro-myostatin [7]): 6.49e+06 M⁻¹ s⁻¹; IC50 (nM) Pro + Furin (human pro-myostatin [11]): 0.211 nM
8 | B8 | no binding | no binding | – | – | 0.125 nM | 0.000411 s⁻¹ | 3.29e+06 M⁻¹ s⁻¹ | – | 0.202 nM | EC50 (read off the curve) (murine pro-myostatin [13]): ~0.2 nM
9 | B9 | – | – | – | – | – | – | – | – | – | EC50 (read off the curve) (human pro-myostatin [14]): ~0.5 nM
10 | B10 | no binding | no binding | – | – | – | – | – | – | – | binding result (human pro-myostatin [15]): binds; binding result (murine pro-myostatin [13]): binds
11 | B11 | no binding | no binding | – | – | – | – | – | – | – | binding result (human pro-myostatin [1]): binds; binding result (murine pro-myostatin [2]): binds
